Test results published in patent US20200353078A1 (AstraZeneca / MedImmune, published 2020).
Numbering of substitutions follows the chain as printed.

B1: IL330004 IgG1 (antibody, V domains shown)
VH: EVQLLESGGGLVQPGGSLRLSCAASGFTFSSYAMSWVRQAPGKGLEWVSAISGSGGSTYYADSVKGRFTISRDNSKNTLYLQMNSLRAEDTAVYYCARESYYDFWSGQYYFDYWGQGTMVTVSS
VL: SYELTQPPSVSVSPGQTASISCSGDKLGDKFASWYQQKPGQSPVLIIYQDRKRPSGIPERFSGSNSGNTATLTISGTQTTDEADYYCQAWDGSLYVFGTGTKLTVL
notes: Human IgG1, lambda constant
B2: H338L293 (SEQ ID NOs 182 and 187) (antibody, V domains shown)
VH: EVQLLESGGGLVQPGGSLRLSCAASGFTFSSYAMSWVRQAPGKGLEWVSAISPREGWQYYADSVKGRFTISRDNSKNTLYLQMNSLRAEDTAVYYCVRVVAGYFDSWGRGTLVTVSS
VL: SYELMQPPSVSVSPGQTARITCSGDALPKQYAHWYQQKPGQAPVLVIYKDTERPSGIPERFSGSSSGTTVTLTISGVQAEDEADYYCMSSDPSGASRVFGGGTKLTVL
notes: IgG; also called H338L293_fgl; H338L293 IgG
B3: IL330259 IgG1 (antibody, V domains shown)
VH: B2 VH with I51S, S52T, R54W, E55Q, W57S, Q58T
VL: B2 VL with E3V, M5T, V44A, M88Q, S90A, P92S, L105V
notes: IgG1
B4: Cynomolgus IL-33 Flag®His (ligand)
chain: SITGISPITESLASLSTYNDQSITFALEDESYEIYVEDLKKDKKKDKVLLSYYESQHPSSESGDGVDGKMLMVTLSPTKDFWLQANNKEHSVELHKCEKPLPDQAFFVLHNRSFNCVSFECKTDPGVFIGVKDNHLALIKVDYSENLGSENILFKLSEINPAFLYKVVGAADYKDDDDKAAHHHHHHHHHH
notes: C-terminal FLAG 10xHis tag, E. coli; also called Mature Cynomolugus IL-33; cyno IL-33 FH
B5: 33_640050 IgG1 (antibody, V domains shown)
VH: EVQLLESGGGLVQPGGSLRLSCAASGFTFSSYAMSWVRQAPGKGLEWVSAISGSGGSTYYADSVKGRFTISRDNSKNTLYLQMNSLRAEDTAVYYCPRHKFMQLWGGGLRYPFGYWGQGTMVTVSS
VL: SYVLTQPPSVSVSPGQTASITCSGERMGDKYAAWYQQKPGQSPVLVIYQDTKRPSGIPERFSGSNSGNTATLTISGTQAMDEADYYCQVWDSSTGVFGGGTKVTVL
notes: IgG1; also called ZZ1F7Q-D10

Key:
[1] = molecular target: B4; experiment: SPR BIAcore 2000, IgG captured on Protein G', IL-33 as analyte, 1:1 Langmuir
Description: (§1) The binding affinity of purified IgG samples of exemplary binding members to human and cynomolgus IL-33 was determined by surface plasmon resonance using BIAcore 2000 biosensor (BIAcore AB) essentially as described by Karlsson et al., J Immunol Methods 145(1-2):229-40 (1991). In brief, Protein G′ (Sigma Aldrich, P4689) was covalently coupled to the surface of a CM5 sensor chip using standard amine coupling reagents according to manufacturer's instructions (BIAcore). The protein G′ surface was used to capture purified anti-IL-33 antibodies via the Fc domain to provide a surface density of approximately 290 RU per cycle. Human or cynomolgus IL-33 prepared in HBS-EP buffer (BIAcore AB), at a range of concentrations, between 600 nM and 18.75 nM, were passed over the sensor chip surface. The surface was regenerated using two 10 mM Glycine washes of pH 1.7 and pH 1.5 between each injection of antibody. The resulting sensorgrams were evaluated using BIA evaluation 3.1 software and fitted to a 1:1 Langmuir binding model, to provide relative binding data. The binding results (KD, Ka, and Kd) for antibodies IL330002 and IL330004 binding to human or cynomolgus IL-33 are shown in Table 8.

[2] = molecular target: T1, Human IL-33 Flag®His (human); experiment: as above
T1 construct: Mature IL-33 with C-terminal FLAG 10xHis tag, from E. coli; biotinylated via free cysteines where used biotinylated; also called Mature Human IL-33_FH; human IL-33 FH
T1 chain: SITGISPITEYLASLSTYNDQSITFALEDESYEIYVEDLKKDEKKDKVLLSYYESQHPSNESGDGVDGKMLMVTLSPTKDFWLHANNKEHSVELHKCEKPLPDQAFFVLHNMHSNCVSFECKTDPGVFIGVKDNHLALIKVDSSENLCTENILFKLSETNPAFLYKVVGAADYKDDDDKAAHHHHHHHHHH
Description: as §1

[3] = molecular target: T2, Human IL-33 (Axxora/Adipogen AG-40B-0038) (human, UniProt O95760 112-270, limits assumed); experiment: cell-based or functional assay
T2 sequence (looked up): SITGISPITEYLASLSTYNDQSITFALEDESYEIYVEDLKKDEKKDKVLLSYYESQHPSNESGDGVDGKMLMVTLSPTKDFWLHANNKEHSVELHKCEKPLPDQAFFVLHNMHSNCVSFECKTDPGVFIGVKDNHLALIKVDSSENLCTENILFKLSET

[4] = molecular target: T3, His10/Avi Human IL33-01 (human); experiment: HTRF competition: purified IgG against FLAG-His human ST2 for biotinylated IL33-01, 1 hour incubation
T3 construct: Wild type mature IL-33 with N-terminal 10xHis, Avitag and Factor Xa site; biotinylated by BirA on the Avitag where used biotinylated; reduced form unless treated; also called N-terminal His Avi IL-33; His-Avi human IL-33 wild type
T3 chain: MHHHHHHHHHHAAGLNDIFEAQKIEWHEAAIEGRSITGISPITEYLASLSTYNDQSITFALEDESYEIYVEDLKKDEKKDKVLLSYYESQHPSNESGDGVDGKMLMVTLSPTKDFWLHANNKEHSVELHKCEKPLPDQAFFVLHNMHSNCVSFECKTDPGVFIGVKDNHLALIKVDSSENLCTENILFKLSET

[5] = molecular target: T1, Human IL-33 Flag®His; experiment: cell-based or functional assay
[6] = molecular target: B4; experiment: HTRF competition, IgG titrated against biotinylated human ST2-Fc
Method in brief: (§2)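 Antibody dilution series competed with biotinylated human ST2-Fc (added from a 4 nM mix with streptavidin-XL665) for IL-33 (added from a 1.2 nM mix with anti-FLAG cryptate). Buffer was DPBS with 0.8 M KF and 0.1% BSA. Incubation ran 2 h at RT then 16 h at 4 °C, with TRF read at 620/665 nm.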

[7] = molecular target: T1, Human IL-33 Flag®His; experiment: as above
Method in brief: as §2

[8] = molecular target: T1, Human IL-33 Flag®His; experiment: HTRF: IL-33FH binding to biotinylated ST2-Fc, IgG titrated, after 18 h pre-incubation of IgG with IL-33
[9] = molecular target: T2, Human IL-33 (Axxora/Adipogen …); experiment: HTRF epitope competition: unlabelled IgG against DyLight labelled IL330101 IgG for biotinylated human IL-33
[10] = molecular target: T4, 33_640087-7B IgG1; experiment: HTRF: unlabelled test protein competes with biotinylated human IL33-01 for DyLight650 labelled 33_640087-7B IgG
T4 construct: IgG1
Description: Human, cyno and mouse IL-33 FLAG® His (described in Example 1 and Table 21), Human IL-1 alpha and IL-1 beta (R&D Systems) (Table 21) or rat IL-33 (GenScript) were tested for inhibition of human IL-33 binding to DyLight650 labelled 33_640087-7B or DyLight650 labelled 33_640237-2B by adding 5 microlitres of each dilution of sample to a 384 well low volume assay plate (Costar, 3673). […] This was followed by the addition of 2.5 microlitres of a solution containing 0.12 nM biotinylated human IL-33-01 combined with 0.75 nM streptavidin cryptate detection (Cisbio International, 610SAKLB). All dilutions were performed in assay buffer containing 0.8 M potassium fluoride (VWR, 26820.236) and 0.1% bovine serum albumin (BSA, PAA, K05-013) in Dulbeccos PBS (Invitrogen, 14190185). Assay plates were incubated for 4 hours at room temperature followed by 18 hours at 4 degrees Celsius and time resolved fluorescence was read at 620 nm and 665 nm emission wavelengths using an EnVision plate reader (Perkin Elmer). Data were analysed by calculating the 665/620 nm ratio followed by the % Delta F values for each sample. The 665/620 nm ratio was used to correct for sample interference using Equation 1. The % Delta F for each sample was then calculated using Equation 2. […] IC₅₀ values were determined using GraphPad Prism software by curve fitting using a four-parameter logistic equation (Equation 4).

[11] = molecular target: T5, 33_640237-2B IgG1; experiment: HTRF: unlabelled test protein competes with biotinylated human IL33-01 for DyLight650 labelled 33_640237-2B IgG
T5 construct: IgG1
Description: Human, cyno and mouse IL-33 FLAG® His (described in Example 1 and Table 21), Human IL-1 alpha and IL-1 beta (R&D Systems) (Table 21) or rat IL-33 (GenScript) were tested for inhibition of human IL-33 binding to DyLight650 labelled 33_640087-7B or DyLight650 labelled 33_640237-2B by adding 5 microlitres of each dilution of sample to a 384 well low volume assay plate (Costar, 3673). […] This was followed by the addition of 2.5 microlitres of a solution containing 0.12 nM biotinylated human IL-33-01 combined with 0.75 nM streptavidin cryptate detection (Cisbio International, 610SAKLB). All dilutions were performed in assay buffer containing 0.8 M potassium fluoride (VWR, 26820.236) and 0.1% bovine serum albumin (BSA, PAA, K05-013) in Dulbeccos PBS (Invitrogen, 14190185). Assay plates were incubated for 4 hours at room temperature followed by 18 hours at 4 degrees Celsius and time resolved fluorescence was read at 620 nm and 665 nm emission wavelengths using an EnVision plate reader (Perkin Elmer). Data were analysed by calculating the 665/620 nm ratio followed by the % Delta F values for each sample. The 665/620 nm ratio was used to correct for sample interference using Equation 1. The % Delta F for each sample was then calculated using Equation 2. The negative control (non-specific binding) was defined by replacing biotinylated human IL-33 combined with streptavidin cryptate detection with streptavidin cryptate detection only. The % Delta F values were subsequently used to calculate % specific binding as described in Equation 3. IC₅₀ values were determined using GraphPad Prism software by curve fitting using a four-parameter logistic equation (Equation 4).

[12] = molecular target: T6, Endogenous human IL-33 (human, UniProt O95760 1-270, limits assumed); experiment: cell-based or functional assay
T6 sequence (looked up): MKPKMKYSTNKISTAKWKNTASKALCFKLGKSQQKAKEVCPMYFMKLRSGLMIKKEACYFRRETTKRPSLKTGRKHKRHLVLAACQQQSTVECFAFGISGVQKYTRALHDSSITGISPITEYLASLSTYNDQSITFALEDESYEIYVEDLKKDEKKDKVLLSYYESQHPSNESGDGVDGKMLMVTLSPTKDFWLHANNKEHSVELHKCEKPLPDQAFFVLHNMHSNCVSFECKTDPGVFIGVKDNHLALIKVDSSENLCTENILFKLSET

[13] = molecular target: T7, His10/Avi Cyno IL-33 (cynomolgus monkey); experiment: HTRF epitope competition, IgG titrated; competitor DyLight labelled 33_640117 IgG; 1 hour
T7 construct: also called Cynomolgus 10His Avitag IL-33; biotinylated His Avi cynomolgus IL-33
T7 chain: T3 chain with E77K, N94S, H118Q, M146R, H147S, S148F, S177Y, C182G, T183S, T193I
Method in brief: (§3)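 HTRF competition in which titrated IgG blocks binding of DyLight-labelled 33_640117 IgG (2.5 nM stock) to biotinylated IL-33 detected with streptavidin cryptate: human IL-33-01 at 0.12 nM with 0.75 nM cryptate, cyno IL-33 at 0.24 nM with 1.5 nM cryptate (solution concentrations). Fluorescence read after 1 h and overnight.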

[14] = molecular target: T3, His10/Avi Human IL33-01; experiment: as above
Method in brief: as §3

[15] = molecular target: T3, His10/Avi Human IL33-01; experiment: HTRF competition: purified IgG against FLAG-His human ST2 for biotinylated IL33-01, overnight incubation
[16] = molecular target: T3, His10/Avi Human IL33-01; experiment: HTRF epitope competition, IgG titrated; competitor DyLight labelled 33_640117 IgG; overnight
Method in brief: as §3

[17] = molecular target: T8, Full-length human IL-33 (amino acids 1-270), HEK293-EBNA cell lysate (human, UniProt O95760 1-270); experiment: cell-based or functional assay
T8 sequence (looked up): T6 sequence (looked up)

B1
Kd [1]: 365 nM
koff [1]: 0.00458 s⁻¹
kon [1]: 12500 M⁻¹ s⁻¹
Kd [2]: 6 nM
koff [2]: 0.0011 s⁻¹
kon [2]: 196000 M⁻¹ s⁻¹
IC50, Huvec p65/RelA NFκB nuclear translocation [3]: 12 nM
IC50 (read off the curve) [4]: ~1 nM
IC50, human ST2 transfected HeLa NFkB luciferase reporter assay [5]: 23 nM
IC50 [6]: 170 nM
IC50 [7]: 9 nM

B2
IC50 (read off the curve) [8]: ~30 nM

B3
IC50 (read off the curve) [9]: ~0.1 nM

B4
IC50 (read off the curve) [10]: ~10 nM
IC50 (read off the curve) [11]: ~200 nM

B5
IC50, Huvec IL-8 release stimulated by human lung lysate [12]: 0.032 nM
IC50 [13]: 4.1 nM
IC50 [14]: 0.3 nM
IC50 (read off the curve) [15]: ~0.5 nM
IC50 [16]: 1.5 nM
IC50, Huvec IL-8 assay vs. full length IL-33 cell lysate [17]: 0.32 nM
